The term IC50 denotes the concentration that inhibits the measured activity by half.

Eight molecules from PMC2710984 can be followed below.

The experiment has as its target GST–BIR3 fusion protein (XIAP BIR3 domain). In words: FMAT bead-based fluorescence competition assay.

Ends that are not written are not given here.

Consider AIPF-NH2 [AIPF (compound 16)], for which the concentration for half-maximal inhibition (IC50) was 80 nM.

Molecule AIAY-NH2 [Grim 4-mer peptide AIAY (compound 8)] had an IC50 of 340 nM.

AVPIAQK-NH2 [Smac 7-mer peptide AVPIAQK (compound 1)] had a half-inhibitory concentration (IC50) of 390 nM.

For ATPF-NH2 [ATPF (compound 17)], the IC50 is 200 nM.

AVPIAQ-NH2 [Smac 6-mer peptide AVPIAQ (compound 2)] had a 50% inhibitory concentration (IC50) of 270 nM.

Molecule SVPF-NH2 [SVPF (compound 10)] came in with an IC50 of 1000 nM.

In turn, ALPF-NH2 [ALPF (compound 15)] yielded a half-maximal inhibitory concentration (IC50) of 180 nM.

Turning to AVPIA-NH2 [Smac 5-mer peptide AVPIA (compound 3)], the concentration for half-maximal inhibition (IC50) was determined as 300 nM.
